# Measured values: patent US7202329 (MYRIAD GENETICS, dated 2007)
# T1: Tsg101 (aa 12-326) (human, UniProt Q99816 12-326)
# T1 sequence (looked up): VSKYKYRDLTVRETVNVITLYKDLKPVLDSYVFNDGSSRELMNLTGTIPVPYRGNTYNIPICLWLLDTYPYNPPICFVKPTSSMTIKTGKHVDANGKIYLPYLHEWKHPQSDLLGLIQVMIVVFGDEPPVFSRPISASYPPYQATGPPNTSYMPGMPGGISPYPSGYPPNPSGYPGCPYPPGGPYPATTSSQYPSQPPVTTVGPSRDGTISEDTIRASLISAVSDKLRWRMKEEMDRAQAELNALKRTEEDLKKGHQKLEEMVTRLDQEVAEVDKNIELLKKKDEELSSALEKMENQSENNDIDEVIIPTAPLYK
# T2: Tsg101 (aa 140-270) (human, UniProt Q99816 140-270)
# T2 construct: range 140-270
# T2 sequence (looked up): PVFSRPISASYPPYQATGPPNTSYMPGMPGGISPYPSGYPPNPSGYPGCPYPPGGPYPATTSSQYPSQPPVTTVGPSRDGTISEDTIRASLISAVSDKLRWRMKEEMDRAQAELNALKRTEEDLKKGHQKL
# T3: Tsg101 (aa 50-391) (human, UniProt Q99816 50-390)
# T3 construct: range 50-391
# T3 sequence (looked up): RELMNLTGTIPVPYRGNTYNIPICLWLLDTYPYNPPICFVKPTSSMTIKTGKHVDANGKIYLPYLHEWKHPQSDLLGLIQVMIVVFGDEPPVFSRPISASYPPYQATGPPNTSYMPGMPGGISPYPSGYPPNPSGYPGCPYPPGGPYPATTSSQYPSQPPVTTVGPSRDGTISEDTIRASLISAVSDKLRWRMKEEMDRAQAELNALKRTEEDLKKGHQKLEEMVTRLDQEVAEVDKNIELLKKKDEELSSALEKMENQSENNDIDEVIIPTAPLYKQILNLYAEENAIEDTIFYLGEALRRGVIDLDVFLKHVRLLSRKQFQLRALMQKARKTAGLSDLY
# T4: Tsg101 (aa 231-391) (human, UniProt Q99816 231-390)
# T4 sequence (looked up): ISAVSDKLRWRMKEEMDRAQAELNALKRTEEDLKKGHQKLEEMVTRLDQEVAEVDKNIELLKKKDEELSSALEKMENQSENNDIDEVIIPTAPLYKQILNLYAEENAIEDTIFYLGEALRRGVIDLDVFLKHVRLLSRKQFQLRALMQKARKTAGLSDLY
# T5: Tsg101 (aa 240-391) (human, UniProt Q99816 240-390)
# T5 construct: range 240-391; also called C-terminal fragment of Tsg101; amino acid residues 240-390
# T5 sequence (looked up): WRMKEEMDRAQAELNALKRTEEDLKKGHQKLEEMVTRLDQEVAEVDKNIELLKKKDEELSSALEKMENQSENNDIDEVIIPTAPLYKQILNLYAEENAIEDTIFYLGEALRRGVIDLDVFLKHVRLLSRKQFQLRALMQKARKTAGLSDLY
# B1: Golgi autoantigen (Golgin-84) (aa 198-497) (other, UniProt Q8TBA6 198-497, looked up)
# chain: SKENVSSNAACPDHTPTPNDDGKSHELSNLRLENQLLRNEVQSLNQEMASLLQRSKETQEELNKARARVEKWNADHSKSDRMTRGLRAQVDDLTEAVAAKDSQLAVLKVRLQEADQLLSTRTEALEALQSEKSRIMQDQSEGNSLQNQALQTFQERLHEADATLKREQESYKQMQSEFAARLNKVEMERQNLAEAITLAERKYSDEKKRVDELQQQVKLYKLNLESSKQELIDYKQKATRILQSKEKLINSLKEGSGFEGLDSSTASSMELEELRHEKEMQREEIQKLMGQIHQLRSELQ
# notes: range 198-497
# B2: Accessory proteins BAP31/BAP29 (BAP31) (aa 184-246) (other, UniProt P51572 184-246, looked up)
# chain: LKADLQKLKDELASTKQKLEKAENQVLAMRKQSEGLTKEYDRLLEEHAKLQAAVDGPMDKKEE
# notes: range 184-246
# B3: Golgi autoantigen (Golgin-84) (aa 198-501) (other, UniProt Q8TBA6 198-501, looked up)
# chain: SKENVSSNAACPDHTPTPNDDGKSHELSNLRLENQLLRNEVQSLNQEMASLLQRSKETQEELNKARARVEKWNADHSKSDRMTRGLRAQVDDLTEAVAAKDSQLAVLKVRLQEADQLLSTRTEALEALQSEKSRIMQDQSEGNSLQNQALQTFQERLHEADATLKREQESYKQMQSEFAARLNKVEMERQNLAEAITLAERKYSDEKKRVDELQQQVKLYKLNLESSKQELIDYKQKATRILQSKEKLINSLKEGSGFEGLDSSTASSMELEELRHEKEMQREEIQKLMGQIHQLRSELQDMEA
# notes: range 198-501
# B4: hypothetical protein FLJ10540 (aa 2-132) (other, UniProt Q53EZ4 2-132, looked up)
# chain: SSRSTKDLIKSKWGSKPSNSKSETTLEKLKGEIAHLKTSVDEITSGKGKLTDKERHRLLEKIRVLEAEKEKNAYQLTEKDKEIQRLRDQLKARYSTTTLLEQLEETTREGERREQVLKALSEEKDVLKQQL
# B5: hypothetical protein FLJ10540 (aa 1-74) (other, UniProt Q53EZ4 1-74, looked up)
# chain: MSSRSTKDLIKSKWGSKPSNSKSETTLEKLKGEIAHLKTSVDEITSGKGKLTDKERHRLLEKIRVLEAEKEKNA
# notes: range 1-74
# B6: hypothetical protein FLJ10540 (aa 1-115) (other, UniProt Q53EZ4 1-115, looked up)
# chain: MSSRSTKDLIKSKWGSKPSNSKSETTLEKLKGEIAHLKTSVDEITSGKGKLTDKERHRLLEKIRVLEAEKEKNAYQLTEKDKEIQRLRDQLKARYSTTTLLEQLEETTREGERRE
# notes: range 1-115
# B7: hypothetical protein FLJ10540 (aa 1-120) (other, UniProt Q53EZ4 1-120, looked up)
# chain: MSSRSTKDLIKSKWGSKPSNSKSETTLEKLKGEIAHLKTSVDEITSGKGKLTDKERHRLLEKIRVLEAEKEKNAYQLTEKDKEIQRLRDQLKARYSTTTLLEQLEETTREGERREQVLKA
# notes: range 1-120
# B8: hypothetical protein FLJ10540 (aa 115-231) (other, UniProt Q53EZ4 115-231, looked up)
# chain: EQVLKALSEEKDVLKQQLSAATSRIAELESKTNTLRLSQTVAPNCFNSSINNIHEMEIQLKDALEKNQQWLVYDQQREVYVKGLLAKIFELEKKTETAAHSLPQQTKKPESEGYLQE
# B9: hypothetical protein FLJ10540 (aa 1-117) (other, UniProt Q53EZ4 1-117, looked up)
# chain: MSSRSTKDLIKSKWGSKPSNSKSETTLEKLKGEIAHLKTSVDEITSGKGKLTDKERHRLLEKIRVLEAEKEKNAYQLTEKDKEIQRLRDQLKARYSTTTLLEQLEETTREGERREQV
# notes: range 1-117
# B10: hypothetical protein FLJ10540 (aa 1-110) (other, UniProt Q53EZ4 1-110, looked up)
# chain: MSSRSTKDLIKSKWGSKPSNSKSETTLEKLKGEIAHLKTSVDEITSGKGKLTDKERHRLLEKIRVLEAEKEKNAYQLTEKDKEIQRLRDQLKARYSTTTLLEQLEETTRE
# notes: range 1-110
# B11: hypothetical protein FLJ10540 (aa 1-231) (other, UniProt Q53EZ4 1-231, looked up)
# chain: MSSRSTKDLIKSKWGSKPSNSKSETTLEKLKGEIAHLKTSVDEITSGKGKLTDKERHRLLEKIRVLEAEKEKNAYQLTEKDKEIQRLRDQLKARYSTTTLLEQLEETTREGERREQVLKALSEEKDVLKQQLSAATSRIAELESKTNTLRLSQTVAPNCFNSSINNIHEMEIQLKDALEKNQQWLVYDQQREVYVKGLLAKIFELEKKTETAAHSLPQQTKKPESEGYLQE
# B12: Tropomyosin TM30 p1 (TPM4) (aa 79-142) (other, human, UniProt P67936 79-142, looked up)
# chain: EAEKAADESERGMKVIENRAMKDEEKMEIQEMQLKEAKHIAEEADRKYEEVARKLVILEGELER
# notes: range 79-142
# B13: Rho-associated (ROCK1) (aa 462-617) (other, UniProt Q13464 462-617, looked up)
# chain: KIMKELDEEGNQRRNLESTVSQIEKEKMLLQHRINEYQRKAEQENEKRRNVENEVSTLKDQLEDLKKVSQNSQLANEKLSQLQKQLEEANDLLRTESDTAVRLRKSHTEMSKSISQLESLNRELQERNRILENSKSQTDKDYYQLQAILEAERRDR
# notes: also called Rho-associated coiled coil-containing kinase ROCK1
# B14: Tropomyosin TM30 p1 (TPM4) (aa 91-142) (other, human, UniProt P67936 91-142, looked up)
# chain: MKVIENRAMKDEEKMEIQEMQLKEAKHIAEEADRKYEEVARKLVILEGELER
# notes: range 91-142
# B15: Chromosome-associated polypeptide HCAP (aa 208-300) (other, human, UniProt Q9UQE7 208-300, looked up)
# chain: EELAQYQKWDKMRRALEYTIYNQELNETRAKLDELSAKRETSGEKSRQLRDAQQDARDKMEDIERQVRELKTKISAMKEEKEQLSAERQEQIK
# notes: range 208-300
# B16: Zinc finger protein 231 (ZNF231) (aa 2308-2438) (other, UniProt Q9UPA5 2308-2438, looked up)
# chain: EEPLPTTTPAAIKEAAGAPAPAPLAGQKPPADAAPGGGSGALSRPGFEKEEASQEERQRKQQEQLLQLERERVELEKLRQLRLQEELERERVELQRHREEEQLLVQRELQELQTIKHHVLQQQQEERQAQF
# notes: range 2308-2438
# B17: mitotic spindle coiled-coil related protein (aa 942-1021) (other, UniProt Q96R06 942-1021, looked up)
# chain: LGSDKSAFTRVASMVSLQPAETPGMEESLAEMSIMTTELQSLCSLLQESKEEAIRTLQRKICELQARLQAQEEQHQEVQK
# notes: range 942-1021
# B18: GTPase-activating protein 1 (aa 1439-1567) (other, UniProt P46940 1439-1567, looked up)
# chain: KKSKSVKEDSNLTLQEKKEKIQTGLKKLTELGTVDPKNKYQELINDIARDIRNQRRYRQRRKAELVKLQQTYAALNSKATFYGEQVDYYKSYIKTCLDNLASKGKVSKKPREMKGKKSKKISLKYTAAR
# notes: range 1439-1567; also called IQGAP1; IQGAP
# B19: GTPase-activating protein 1 (aa 1463-1568) (other, UniProt P46940 1463-1568, looked up)
# chain: LKKLTELGTVDPKNKYQELINDIARDIRNQRRYRQRRKAELVKLQQTYAALNSKATFYGEQVDYYKSYIKTCLDNLASKGKVSKKPREMKGKKSKKISLKYTAARL
# notes: range 1463-1568; also called IQGAP1; IQGAP
# B20: intersectin 1 (aa 436-547) (other, UniProt Q15811 436-547, looked up)
# chain: AAKRELERQRQLEWERNRRQELLNQRNKEQEDIVVLKAKKKTLEFELEALNDKKHQLEGKLQDIRCRLTTQRQEIESTNKSRELRIAEITHLQQQLQESQQMLGRLIPEKQI
# notes: range 436-547
# B21: GTPase-activating protein 1 (aa 1439-1565) (other, UniProt P46940 1439-1565, looked up)
# chain: KKSKSVKEDSNLTLQEKKEKIQTGLKKLTELGTVDPKNKYQELINDIARDIRNQRRYRQRRKAELVKLQQTYAALNSKATFYGEQVDYYKSYIKTCLDNLASKGKVSKKPREMKGKKSKKISLKYTA
# notes: range 1439-1565; also called IQGAP1; IQGAP
# B22: intersectin 1 (aa 437-584) (other, UniProt Q15811 437-584, looked up)
# chain: AKRELERQRQLEWERNRRQELLNQRNKEQEDIVVLKAKKKTLEFELEALNDKKHQLEGKLQDIRCRLTTQRQEIESTNKSRELRIAEITHLQQQLQESQQMLGRLIPEKQILNDQLKQVQQNSLHRDSLVTLKRALEAKELARQHLRD
# notes: range 437-584
# B23: GTPase-activating protein 1 (aa 1404-1553) (other, UniProt P46940 1404-1553, looked up)
# chain: LTEILETPATSEQEAEHQRAMQRRAIRDAKTPDKMKKSKSVKEDSNLTLQEKKEKIQTGLKKLTELGTVDPKNKYQELINDIARDIRNQRRYRQRRKAELVKLQQTYAALNSKATFYGEQVDYYKSYIKTCLDNLASKGKVSKKPREMKG
# notes: range 1404-1553; also called IQGAP1; IQGAP
# B24: GTPase-activating protein 1 (aa 1406-1547) (other, UniProt P46940 1406-1547, looked up)
# chain: EILETPATSEQEAEHQRAMQRRAIRDAKTPDKMKKSKSVKEDSNLTLQEKKEKIQTGLKKLTELGTVDPKNKYQELINDIARDIRNQRRYRQRRKAELVKLQQTYAALNSKATFYGEQVDYYKSYIKTCLDNLASKGKVSKK
# notes: range 1406-1547; also called IQGAP1; IQGAP
# Molecular target: T1, Tsg101 (aa 12-326)
# Assay: yeast two-hybrid
row,Binder,binding result
1,B1,binds
2,B2,binds
3,B3,binds

# Molecular target: T2, Tsg101 (aa 140-270)
# Assay: yeast two-hybrid
row,Binder,binding result
1,B4,binds
2,B5,binds
3,B6,binds
4,B7,binds

# Molecular target: T3, Tsg101 (aa 50-391)
# Assay: yeast two-hybrid
row,Binder,binding result
1,B8,binds
2,B9,binds
3,B10,binds
4,B11,binds

# Molecular target: T4, Tsg101 (aa 231-391)
# Assay: yeast two-hybrid
row,Binder,binding result
1,B12,binds
2,B13,binds
3,B14,binds
4,B15,binds
5,B16,binds

# Molecular target: T5, Tsg101 (aa 240-391)
# Assay: yeast two-hybrid
row,Binder,binding result
1,B17,binds
2,B18,binds
3,B19,binds
4,B20,binds
5,B21,binds
6,B22,binds
7,B23,binds
8,B24,binds
